Measurements taken from EP4725507A1, “POLYPEPTIDE CONJUGATE, PHARMACEUTICAL COMPOSITION CONTAINING POLYPEPTIDE CONJUGATE AND USE THEREOF” (Nanjing Anji Biotechnology Co., Ltd., priority 2023, dated 2025).
≈ marks a conversion by molar mass, not a printed value. Like-named read-outs stand apart in the source and are kept apart here. Peptide text beside a SMILES is read from it. * marks the point of attachment. Paclitaxel(2'-O-succinyl) = CC(=O)O[C@H]1C(=O)[C@@]2(C)[C@H]([C@H](OC(=O)c3ccccc3)[C@]3(O)C[C@H](OC(=O)[C@H](OC(=O)CCC(=O)*)[C@@H](NC(=O)c4ccccc4)c4ccccc4)C(C)=C1C3(C)C)[C@]1(OC(C)=O)CO[C@@H]1C[C@@H]2O

Tests used:
[1] = test system: HCCLM3 (human highly metastatic hepatocellular carcinoma cells); assay: Tumor cell proliferation inhibition (CCK8); assay type: cell-based; conditions: IC50 of free drug / IC50 of polypeptide conjugate
Description: (§1) Human highly metastatic hepatocellular carcinoma cells HCCLM3, human highly metastatic gastric cancer cells MKN45, human gastric cancer cells BGC-823 and MGC-803, non-small cell lung cancer cells A549, human pancreatic cancer cells ASPC-1, human colon cancer cells LoVo, human ovarian cancer cells A2780, human cervical cancer cells SiHa, human malignant melanoma cells SK-mel-2 and M14, human osteosarcoma cells Saos-2, human bladder transitional cell carcinoma cells T24, human brain glioblastoma cells U87-MG, human lymphoma cells Raji, and human epidermal cancer cells A431 were selected for the experiment. Among them, HCCLM3 cells, MKN45 cells, BGC-823 cells, MGC-803 cells, A431 cells and A549 cells were provided by Nanjing Anji Biotechnology Co., Ltd., and the other cells were provided by Nanjing Ouji Pharmaceutical Technology Service Co., Ltd.
(§2) The aforementioned tumor cells were preserved in a medium containing 10% fetal bovine serum and 1% penicillin-streptomycin, and incubated at 37°C with 5% CO2 and 95% humidity. The aforementioned tumor cells were cultured in T75 flasks with an experimental cell density of 80%. The aforementioned tumor cell lines were mycoplasma-negative.
(§3) Tumor cells in the logarithmic growth phase were taken for the experiment. The cells were digested, counted, and prepared into a cell suspension with a concentration of 1×10^5 cells/mL, which was then inoculated into a 96-well plate (100 µL per well). The 96-well plate was incubated in a 37°C, 5% CO2 incubator for 24 hours. […] After incubating the plate in the incubator for 72 h, the cell morphology of each group was observed under a microscope. Then, 10 µL of CCK8 solution (Nanjing Enjing Biotechnology Co., Ltd.) was added to each well, and the plate was further incubated in the cell incubator for 4 h. After incubation, the absorbance was measured at 450 nm, and the tumor cell proliferation inhibition rate was calculated. The efficiency ratio was the ratio of the IC50 value of the free drug to that of the polypeptide conjugate. Table 1 Tumor cell proliferation inhibition rates of polypeptide conjugates

[2] = test system: A549 (non-small cell lung cancer cells); assay: Tumor cell proliferation inhibition (CCK8); assay type: cell-based; conditions: IC50 of free drug / IC50 of polypeptide conjugate
Description: as §1, §2, §3

[3] = Solubility in water (HPLC, saturated solution); assay type: physicochemical; conditions: for solubility thermodynamic at 15 min: in water (ultrapure), HPLC; for Fold Increase: solubility in water of the conjugate versus the free drug (DOC or PTX)
Protocol: 25, 50, 100, 200, 300, and 400 µL of the above stock solutions were precisely measured, added into 1 mL volumetric flasks, and diluted to the mark with methanol to obtain a series of standard solutions with concentrations of 25, 50, 100, 200, 300, and 400 µg/mL, respectively. The peak areas of the series of standard solutions were detected by HPLC (mobile phase: 0.065% TFA in water + 0.05% TFA; chromatographic column: YMC-Triart C18; wavelength: 220 nm) to construct a concentration-peak area standard curve, where the abscissa represents concentration and the ordinate represents peak area.
The peak area of the sample was detected by HPLC, and its saturation in water was calculated through the concentration-peak area standard curve. Table 6 Results of detection of solubility of polypeptide conjugates in water

[4] = Metabolism in liver microsomes; assay type: in vitro ADME; conditions: for k / microsomal CLint at 1 µM / half-life at 1 µM: NADPH, 37°C; for microsomal CLint at 1 µM: read-out: CLint(mic); for half-life at 1 µM: read-out: t½
Protocol: 1.85 mg of DOC-AI (or 1.81 mg of PTX-AI) was precisely weighed, 1 mL of DMSO was added, dissolved and mixed well to obtain 1 mM stock solution. 1 mM stock solution was diluted with methanol to 100 µM working solution for sample incubation. 12.5 µL of 20 mg/mL liver microsomes (mouse-derived, Shanghai Quanyang Trading Co., Ltd., batch number: MIC255038; rat-derived, Shanghai Quanyang Trading Co., Ltd., batch number: MIC254034; dog-derived, Shanghai Quanyang Trading Co., Ltd., batch number: MIC257015; monkey-derived, Ruide Liver Disease Research (Shanghai) Co., Ltd., batch number: SYXS; human-derived, Shanghai Quanyang Trading Co., Ltd., batch number: 1210097), 432.5 µL of 100 mM PBS, 25 µL of 20 mM NADPH, and 25 µL of 100 mM MgCl2 were added into a 96-well plate, and after mixing, pre-incubated at 37°C for 5 min. 5 µL of 100 µM working solution was added to the 96-well plate to initiate the reaction. At the set time points, 50 µL of the reaction sample was taken and placed in an EP tube containing 100 µL of ice-cold acetonitrile, vortexed for inactivation, and stored at -90°C for testing. […] Table 4 Results of detection of DOC-AI metabolism in liver microsomes

[5] = Human liver microsomes 0.5 mg/mL
[6] = Monkey liver microsomes 0.5 mg/mL
[7] = Mouse liver microsomes 0.5 mg/mL

| SMILES | Efficiency Ratios [1] | Efficiency Ratios [2] | solubility thermodynamic at 15 min [3] [µg/mL] | Fold Increase [3] | CLint(liver) ([4]; Dog liver microsomes 0.5 mg/mL) [mL/min/kg] | Clearance Rate Level ([4]; Dog liver microsomes 0.5 mg/mL) | Hepatic Extraction Ratio (EH) ([4]; Dog liver microsomes 0.5 mg/mL) | k ([4]; Dog liver microsomes 0.5 mg/mL) | microsomal CLint at 1 µM ([4]; Dog liver microsomes 0.5 mg/mL) [µL/min/mg] | half-life at 1 µM ([4]; Dog liver microsomes 0.5 mg/mL) [min] | CLint(liver) [4, 5] [mL/min/kg] | Clearance Rate Level [4, 5] | Hepatic Extraction Ratio (EH) [4, 5] | k [4, 5] | microsomal CLint at 1 µM [4, 5] [µL/min/mg] | half-life at 1 µM [4, 5] [min] | CLint(liver) [4, 6] [mL/min/kg] | Clearance Rate Level [4, 6] | Hepatic Extraction Ratio (EH) [4, 6] | k [4, 6] | other results |
| --- | --- | --- | --- | --- | --- | --- | --- | --- | --- | --- | --- | --- | --- | --- | --- | --- | --- | --- | --- | --- | --- |
| CC(=O)O[C@@]12CO[C@@H]1C[C@H](O)[C@@]1(C)C(=O)[C@H](O)C3=C(C)[C@@H](OC(=O)[C@H](OC(=O)CCC(=O)N[C@@H](CCCNC(=N)N)C(=O)N[C@@H](CO)C(=O)N4CCC[C@H]4C(=O)N[C@@H](Cc4ccc(O)cc4)C(=O)N[C@@H](C)C(=O)N[C@@H](CC(N)=O)C(=O)N[C@@H](CO)C(=O)O)[C@@H](NC(=O)OC(C)(C)C)c4ccccc4)C[C@@](O)([C@@H](OC(=O)c4ccccc4)[C@H]21)C3(C)C [DOC-AI] | 1.63 | 1.39 | 4430 (≈ 2630 µM) | 1.62×10^5 | 66.2 | Medium | 0.682 | 0.0230 | 45.9 | 30.2 | 23.4 | Medium | 0.531 | 0.0130 | 26 | 53.3 | 140 | High | 0.763 | 0.0520 | microsomal CLint at 1 µM [4, 6]: 104 µL/min/mg; half-life at 1 µM [4, 6]: 13.3 min; CLint(liver) [4, 7]: 324 mL/min/kg; Clearance Rate Level [4, 7]: High; Hepatic Extraction Ratio (EH) [4, 7]: 0.783; k [4, 7]: 0.0410; microsomal CLint at 1 µM [4, 7]: 81.9 µL/min/mg; half-life at 1 µM [4, 7]: 16.9 min; CLint(liver) ([4]; Rat liver microsomes 0.5 mg/mL): 108 mL/min/kg; Clearance Rate Level ([4]; Rat liver microsomes 0.5 mg/mL): Medium; Hepatic Extraction Ratio (EH) ([4]; Rat liver microsomes 0.5 mg/mL): 0.662; k ([4]; Rat liver microsomes 0.5 mg/mL): 0.0301; microsomal CLint at 1 µM ([4]; Rat liver microsomes 0.5 mg/mL): 60.1 µL/min/mg; half-life at 1 µM ([4]; Rat liver microsomes 0.5 mg/mL): 23.1 min |
| CC(=O)O[C@H]1C(=O)[C@@]2(C)[C@H]([C@H](OC(=O)c3ccccc3)[C@]3(O)C[C@H](OC(=O)[C@H](OC(=O)CCC(=O)N[C@@H](CCCNC(=N)N)C(=O)N[C@@H](CO)C(=O)N4CCC[C@H]4C(=O)N[C@@H](Cc4ccc(O)cc4)C(=O)N[C@@H](C)C(=O)N[C@@H](CC(N)=O)C(=O)N[C@@H](CO)C(=O)O)[C@@H](NC(=O)c4ccccc4)c4ccccc4)C(C)=C1C3(C)C)[C@]1(OC(C)=O)CO[C@@H]1C[C@@H]2O [PTX-AI] ({Paclitaxel(2'-O-succinyl)}-RSPYANS-OH) | 3.70 | 2.05 | 5.56 (≈ 3.21 µM) | 46.33 | 81.4 | High | 0.725 | 0.0283 | 56.6 | 24.5 | 26.6 | Medium | 0.562 | 0.0148 | 29.5 | 46.9 | 148 | High | 0.772 | 0.0548 | microsomal CLint at 1 µM [4, 6]: 110 µL/min/mg; half-life at 1 µM [4, 6]: 12.7 min; CLint(liver) [4, 7]: 405 mL/min/kg; Clearance Rate Level [4, 7]: High; Hepatic Extraction Ratio (EH) [4, 7]: 0.818; k [4, 7]: 0.0511; microsomal CLint at 1 µM [4, 7]: 102 µL/min/mg; half-life at 1 µM [4, 7]: 13.6 min; CLint(liver) ([4]; Rat liver microsomes 0.5 mg/mL): 122 mL/min/kg; Clearance Rate Level ([4]; Rat liver microsomes 0.5 mg/mL): Medium; Hepatic Extraction Ratio (EH) ([4]; Rat liver microsomes 0.5 mg/mL): 0.689; k ([4]; Rat liver microsomes 0.5 mg/mL): 0.0339; microsomal CLint at 1 µM ([4]; Rat liver microsomes 0.5 mg/mL): 67.8 µL/min/mg; half-life at 1 µM ([4]; Rat liver microsomes 0.5 mg/mL): 20.4 min |
